Data from patent publication US12630618 (GEORGIA TECH RESEARCH, dated 2026).

Target: T1, human myocilin OLF (hMyoc-OLF), cleaved from its fusion tag (human, UniProt Q99972 244-503, limits assumed)
T1 construct: In Western blots the protein is denatured; also called hOLF; cleaved human myocilin OLF
T1 sequence: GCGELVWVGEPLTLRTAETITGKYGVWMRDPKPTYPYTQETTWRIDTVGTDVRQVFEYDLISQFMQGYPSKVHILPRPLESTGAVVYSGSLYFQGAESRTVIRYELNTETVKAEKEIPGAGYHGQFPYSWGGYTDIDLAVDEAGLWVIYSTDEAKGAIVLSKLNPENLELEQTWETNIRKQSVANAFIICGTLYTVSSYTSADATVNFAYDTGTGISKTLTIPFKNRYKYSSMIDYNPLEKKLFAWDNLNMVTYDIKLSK
Assay: Western blot, denatured hMyoc-OLF, IgG

B1: Monoclonal Antibody OLF2 (antibody, V domains shown)
VH: DVKLVESGGGLVKPGGSLKLSCAASGFTFSSYAMSWVRQTPDKRLEWVATISSGGSYTYYPDSVKGRFTISRDNAKNTLYLQMSSLKSEDTAMYYCARLGGGIFAYWGQGTLVTVSA
VL: DVLMTQTPLSLPVSLGDQASISCRSSQSIVHSNGNTYLEWYLQKPGQSPKLLIYKVSNRFSGVPDRFSGSGSGTDFTLKISRVEAEDLGVYYCFQGSHVPLTFGAGTKLEIKR
notes: also called anti-OLF2
B1: binds.
